From patent publication US20200354462A1

Target: human GnRH receptor expressed on the surface of OC-3-VGH cancer cells (human) (UniProt P30968)
Assay: cell-based or functional assay

Chain of UniProt P30968 (P30968 whole entry): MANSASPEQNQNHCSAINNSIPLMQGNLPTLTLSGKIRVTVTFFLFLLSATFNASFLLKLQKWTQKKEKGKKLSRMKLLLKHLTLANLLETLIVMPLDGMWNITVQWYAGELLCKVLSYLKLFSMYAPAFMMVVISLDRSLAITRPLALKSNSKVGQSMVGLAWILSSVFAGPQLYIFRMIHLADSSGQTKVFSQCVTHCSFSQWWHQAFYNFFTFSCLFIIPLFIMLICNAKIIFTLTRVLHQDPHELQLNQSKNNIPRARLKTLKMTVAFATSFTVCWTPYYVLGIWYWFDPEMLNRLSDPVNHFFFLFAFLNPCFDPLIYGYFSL

GnRH gene expression in cancer cells: 50%
Substance: antide (peptide)
